Assays:
[1] = molecular target: hCD37-LEL (Large Extracellular Loop; amino acids 107 to 242 of human CD37 with a 6xHis-tag) (human); experiment: ELISA, native hCD37-LEL coated on the plate, antibody at 5 µg/mL
[2] = molecular target: hCD37-LEL (Large Extracellular Loop; amino acids 107 to 242 of human CD37 with a 6xHis-tag) (human); experiment: as above; remark: listed apart in the source
[3] = molecular target: hCD37-LEL (Large Extracellular Loop; amino acids 107 to 242 of human CD37 with a 6xHis-tag) (human); experiment: ELISA, native hCD37-LEL coated on the plate, antibody at 10 µg/mL
[4] = molecular target: hCD37-LEL (Large Extracellular Loop; amino acids 107 to 242 of human CD37 with a 6xHis-tag) (human); experiment: as above; remark: listed apart in the source
[5] = molecular target: hCD37-LEL (Large Extracellular Loop; amino acids 107 to 242 of human CD37 with a 6xHis-tag) (human); experiment: ELISA, native hCD37-LEL coated on the plate, antibody at 2.5 µg/mL
[6] = molecular target: hCD37-LEL (Large Extracellular Loop; amino acids 107 to 242 of human CD37 with a 6xHis-tag) (human); experiment: as above; remark: listed apart in the source
[7] = molecular target: hCD37-LEL (Large Extracellular Loop; amino acids 107 to 242 of human CD37 with a 6xHis-tag) (human); experiment: ELISA, denatured hCD37-LEL coated on the plate, antibody at 5 µg/mL
[8] = molecular target: hCD37-ECD-Fc (amino acids 107 to 235 of human CD37 fused to murine IgG2a Fc-domain) (human); experiment: ELISA, native hCD37-ECD-Fc coated on the plate, antibody at 5 µg/mL
Sequence of hCD37-ECD-Fc (amino acids 107 to 235 of human CD37 fused to murine IgG2a Fc-domain) (human) (chain, as listed by the source limits assumed): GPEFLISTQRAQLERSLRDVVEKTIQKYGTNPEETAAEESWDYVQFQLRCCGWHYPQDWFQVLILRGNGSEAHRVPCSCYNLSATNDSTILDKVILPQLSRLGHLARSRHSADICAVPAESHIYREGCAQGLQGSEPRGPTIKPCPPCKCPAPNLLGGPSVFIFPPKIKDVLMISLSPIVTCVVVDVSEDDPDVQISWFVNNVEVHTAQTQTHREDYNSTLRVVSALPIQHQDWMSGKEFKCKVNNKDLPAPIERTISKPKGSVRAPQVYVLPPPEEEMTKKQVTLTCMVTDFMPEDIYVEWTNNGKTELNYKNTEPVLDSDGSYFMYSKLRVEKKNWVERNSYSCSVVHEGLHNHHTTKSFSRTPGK

[9] = molecular target: hCD37-LEL (Large Extracellular Loop; amino acids 107 to 242 of human CD37 with a 6xHis-tag) (human); experiment: ELISA, denatured hCD37-LEL coated on the plate, antibody at 10 µg/mL
[10] = molecular target: hCD37-ECD-Fc (amino acids 107 to 235 of human CD37 fused to murine IgG2a Fc-domain) (human); experiment: ELISA, native hCD37-ECD-Fc coated on the plate, antibody at 10 µg/mL
[11] = molecular target: hCD37-Fc-LAGA (amino acids 107 to 235 of human CD37 fused to human IgG1 Fc-domain) (human); experiment: ELISA, native hCD37-Fc-LAGA coated on the plate, antibody at 5 µg/mL
Sequence of hCD37-Fc-LAGA (amino acids 107 to 235 of human CD37 fused to human IgG1 Fc-domain) (human) (chain, as listed by the source limits assumed): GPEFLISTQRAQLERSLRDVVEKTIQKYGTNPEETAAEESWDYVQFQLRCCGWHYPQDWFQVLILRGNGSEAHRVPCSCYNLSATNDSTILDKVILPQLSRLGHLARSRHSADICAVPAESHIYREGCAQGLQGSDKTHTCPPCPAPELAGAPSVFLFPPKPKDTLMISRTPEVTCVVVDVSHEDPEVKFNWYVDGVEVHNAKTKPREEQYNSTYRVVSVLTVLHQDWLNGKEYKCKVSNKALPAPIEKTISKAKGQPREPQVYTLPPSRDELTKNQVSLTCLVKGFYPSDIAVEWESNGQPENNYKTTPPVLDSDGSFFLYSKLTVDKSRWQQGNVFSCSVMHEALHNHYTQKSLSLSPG

[12] = molecular target: hCD37-Fc-LAGA (amino acids 107 to 235 of human CD37 fused to human IgG1 Fc-domain) (human); experiment: as above; remark: listed apart in the source
[13] = molecular target: hCD37-LEL (Large Extracellular Loop; amino acids 107 to 242 of human CD37 with a 6xHis-tag) (human); experiment: ELISA, denatured hCD37-LEL coated on the plate, antibody at 2.5 µg/mL
[14] = molecular target: hCD37-ECD-Fc (amino acids 107 to 235 of human CD37 fused to murine IgG2a Fc-domain) (human); experiment: ELISA, native hCD37-ECD-Fc coated on the plate, antibody at 2.5 µg/mL
[15] = molecular target: hCD37-Fc-LAGA (amino acids 107 to 235 of human CD37 fused to human IgG1 Fc-domain) (human); experiment: ELISA, native hCD37-Fc-LAGA coated on the plate, antibody at 10 µg/mL
[16] = molecular target: hCD37-Fc-LAGA (amino acids 107 to 235 of human CD37 fused to human IgG1 Fc-domain) (human); experiment: as above; remark: listed apart in the source
[17] = molecular target: hCD37-ECD-Fc (amino acids 107 to 235 of human CD37 fused to murine IgG2a Fc-domain) (human); experiment: ELISA, denatured hCD37-ECD-Fc coated on the plate, antibody at 5 µg/mL
[18] = molecular target: hCD37-Fc-LAGA (amino acids 107 to 235 of human CD37 fused to human IgG1 Fc-domain) (human); experiment: ELISA, native hCD37-Fc-LAGA coated on the plate, antibody at 2.5 µg/mL
[19] = molecular target: hCD37-Fc-LAGA (amino acids 107 to 235 of human CD37 fused to human IgG1 Fc-domain) (human); experiment: as above; remark: listed apart in the source
[20] = molecular target: hCD37-ECD-Fc (amino acids 107 to 235 of human CD37 fused to murine IgG2a Fc-domain) (human); experiment: ELISA, denatured hCD37-ECD-Fc coated on the plate, antibody at 10 µg/mL
[21] = molecular target: hCD37-Fc-LAGA (amino acids 107 to 235 of human CD37 fused to human IgG1 Fc-domain) (human); experiment: ELISA, denatured hCD37-Fc-LAGA coated on the plate, antibody at 5 µg/mL
[22] = molecular target: hCD37-ECD-Fc (amino acids 107 to 235 of human CD37 fused to murine IgG2a Fc-domain) (human); experiment: ELISA, denatured hCD37-ECD-Fc coated on the plate, antibody at 2.5 µg/mL
[23] = molecular target: hCD37-Fc-LAGA (amino acids 107 to 235 of human CD37 fused to human IgG1 Fc-domain) (human); experiment: ELISA, denatured hCD37-Fc-LAGA coated on the plate, antibody at 10 µg/mL
[24] = molecular target: hCD37-Fc-LAGA (amino acids 107 to 235 of human CD37 fused to human IgG1 Fc-domain) (human); experiment: ELISA, denatured hCD37-Fc-LAGA coated on the plate, antibody at 2.5 µg/mL
[25] = molecular target: hCD37-LEL (Large Extracellular Loop; amino acids 107 to 242 of human CD37 with a 6xHis-tag) (human); experiment: ELISA, denatured hCD37-LEL coated on the plate, purified antibody titrated
[26] = molecular target: hCD37-LEL (Large Extracellular Loop; amino acids 107 to 242 of human CD37 with a 6xHis-tag) (human); experiment: ELISA, denatured-reduced hCD37-LEL coated on the plate, antibody at 5 µg/mL
[27] = molecular target: hCD37-LEL (Large Extracellular Loop; amino acids 107 to 242 of human CD37 with a 6xHis-tag) (human); experiment: ELISA, denatured-reduced hCD37-LEL coated on the plate, antibody at 10 µg/mL
[28] = molecular target: hCD37-LEL (Large Extracellular Loop; amino acids 107 to 242 of human CD37 with a 6xHis-tag) (human); experiment: ELISA, denatured-reduced hCD37-LEL coated on the plate, antibody at 2.5 µg/mL
[29] = molecular target: hCD37-Fc-LAGA (amino acids 107 to 235 of human CD37 fused to human IgG1 Fc-domain) (human); experiment: ELISA, denatured-reduced hCD37-Fc-LAGA coated on the plate, antibody at 5 µg/mL
[30] = molecular target: hCD37-Fc-LAGA (amino acids 107 to 235 of human CD37 fused to human IgG1 Fc-domain) (human); experiment: ELISA, denatured-reduced hCD37-Fc-LAGA coated on the plate, antibody at 10 µg/mL
[31] = molecular target: hCD37-Fc-LAGA (amino acids 107 to 235 of human CD37 fused to human IgG1 Fc-domain) (human); experiment: ELISA, denatured-reduced hCD37-Fc-LAGA coated on the plate, antibody at 2.5 µg/mL
[32] = molecular target: hCD37-Fc-LAGA (amino acids 107 to 235 of human CD37 fused to human IgG1 Fc-domain) (human); experiment: ELISA, native hCD37-Fc-LAGA coated on the plate, purified antibody titrated (left panel)

Sequence of hCD37-LEL (Large Extracellular Loop; amino acids 107 to 242 of human CD37 with a 6xHis-tag) (human) (chain, as listed by the source limits assumed): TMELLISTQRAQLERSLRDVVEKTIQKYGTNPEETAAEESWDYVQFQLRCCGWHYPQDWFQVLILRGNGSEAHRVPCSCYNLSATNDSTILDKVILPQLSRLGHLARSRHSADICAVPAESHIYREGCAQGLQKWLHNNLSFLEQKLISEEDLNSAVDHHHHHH

ELISA absorbance at 450 nm [1]: 3 | ELISA absorbance at 450 nm [2]: 2.4 | ELISA absorbance at 450 nm [3]: 3 | ELISA absorbance at 450 nm [4]: 2.7 | ELISA absorbance at 450 nm [5]: 3 | ELISA absorbance at 450 nm [6]: 2 | ELISA absorbance at 450 nm [7]: 2 | ELISA absorbance at 450 nm [8]: 2.4 | ELISA absorbance at 450 nm [9]: 2.8 | ELISA absorbance at 450 nm [10]: 2.7 | ELISA absorbance at 450 nm [11]: 2.6 | ELISA absorbance at 450 nm [12]: 2.5 | ELISA absorbance at 450 nm [13]: 1.8 | ELISA absorbance at 450 nm [14]: 2.2 | ELISA absorbance at 450 nm [15]: 2.8 | ELISA absorbance at 450 nm [16]: 2.9 | ELISA absorbance at 450 nm [17]: 3.1 | ELISA absorbance at 450 nm [18]: 2.4 | ELISA absorbance at 450 nm [19]: 2.1 | ELISA absorbance at 450 nm [20]: 3.1 | ELISA absorbance at 450 nm [21]: 3.1 | ELISA absorbance at 450 nm [22]: 3.1 | ELISA absorbance at 450 nm [23]: 3.2 | ELISA absorbance at 450 nm [24]: 3.1 | EC50 (read off the curve) [25]: 0.1 nM | ELISA absorbance at 450 nm [26]: 3.2 | ELISA absorbance at 450 nm [27]: 3.3 | ELISA absorbance at 450 nm [28]: 3.2 | ELISA absorbance at 450 nm [29]: 3.2 | ELISA absorbance at 450 nm [30]: 3.3 | ELISA absorbance at 450 nm [31]: 3.2 | EC50 (read off the curve) [32]: 3 nM
Substance: NCL-CD37 mouse monoclonal anti-CD37 antibody (clone CT1, Leica Biosystems)

— patent US20180244795A1
